Molecular target: Human CD137 ECD (human)
Assay: single mutant vs template dBBDu183H

Sequence of Human CD137 ECD (human) (chain, as listed by the source limits assumed): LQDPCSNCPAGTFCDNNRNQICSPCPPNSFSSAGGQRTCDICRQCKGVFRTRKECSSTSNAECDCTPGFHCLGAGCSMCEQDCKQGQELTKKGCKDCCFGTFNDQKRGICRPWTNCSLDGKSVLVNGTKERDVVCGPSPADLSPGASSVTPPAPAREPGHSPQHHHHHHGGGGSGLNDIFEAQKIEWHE

| Binder | fold change of affinity [fold] |
| --- | --- |
| H183/L072 VH K52bD (antibody, name in Kabat numbering, V domains shown) VH: QVQLVESGGGLVQPGRSLRLSCAASGFTFSNAWMHWVRQAPGKGLEWVAQIKDDGNAYAAYYAPSVKGRFTISRDDSKNSIYLQMNSLKTEDTAVYYCHYVHYASASTVLPAFGVDAWGQGTTVTVSS VL: DIVMTQSPLSLPVTPGEPASISCQASQELVHMNRNTYLHWYQQKPGQAPRLLIYKVSNRFPGVPDRFSGSGSGTDFTLKISRVEAEDVGVYYCAQGTSVPFTFGQGTKLEIK | 0 |
| H183/L072 VH F29E (antibody, name in Kabat numbering, V domains shown) VH: QVQLVESGGGLVQPGRSLRLSCAASGFTESNAWMHWVRQAPGKGLEWVAQIKDKGNAYAAYYAPSVKGRFTISRDDSKNSIYLQMNSLKTEDTAVYYCHYVHYASASTVLPAFGVDAWGQGTTVTVSS VL: DIVMTQSPLSLPVTPGEPASISCQASQELVHMNRNTYLHWYQQKPGQAPRLLIYKVSNRFPGVPDRFSGSGSGTDFTLKISRVEAEDVGVYYCAQGTSVPFTFGQGTKLEIK | 0 |
| H183/L072 VH M34E (antibody, name in Kabat numbering, V domains shown) VH: QVQLVESGGGLVQPGRSLRLSCAASGFTFSNAWEHWVRQAPGKGLEWVAQIKDKGNAYAAYYAPSVKGRFTISRDDSKNSIYLQMNSLKTEDTAVYYCHYVHYASASTVLPAFGVDAWGQGTTVTVSS VL: DIVMTQSPLSLPVTPGEPASISCQASQELVHMNRNTYLHWYQQKPGQAPRLLIYKVSNRFPGVPDRFSGSGSGTDFTLKISRVEAEDVGVYYCAQGTSVPFTFGQGTKLEIK | 0 |
| H183/L072 VH I51E (antibody, name in Kabat numbering, V domains shown) VH: QVQLVESGGGLVQPGRSLRLSCAASGFTFSNAWMHWVRQAPGKGLEWVAQEKDKGNAYAAYYAPSVKGRFTISRDDSKNSIYLQMNSLKTEDTAVYYCHYVHYASASTVLPAFGVDAWGQGTTVTVSS VL: DIVMTQSPLSLPVTPGEPASISCQASQELVHMNRNTYLHWYQQKPGQAPRLLIYKVSNRFPGVPDRFSGSGSGTDFTLKISRVEAEDVGVYYCAQGTSVPFTFGQGTKLEIK | 0 |
| H183/L072 VH H35E (antibody, name in Kabat numbering, V domains shown) VH: QVQLVESGGGLVQPGRSLRLSCAASGFTFSNAWMEWVRQAPGKGLEWVAQIKDKGNAYAAYYAPSVKGRFTISRDDSKNSIYLQMNSLKTEDTAVYYCHYVHYASASTVLPAFGVDAWGQGTTVTVSS VL: DIVMTQSPLSLPVTPGEPASISCQASQELVHMNRNTYLHWYQQKPGQAPRLLIYKVSNRFPGVPDRFSGSGSGTDFTLKISRVEAEDVGVYYCAQGTSVPFTFGQGTKLEIK | 0 |

Further lines, results first:

| fold change of affinity [fold] | Binder |
| --- | --- |
| 0 | H183/L072 VH N53D (antibody, name in Kabat numbering, V domains shown) VH: QVQLVESGGGLVQPGRSLRLSCAASGFTFSNAWMHWVRQAPGKGLEWVAQIKDKGDAYAAYYAPSVKGRFTISRDDSKNSIYLQMNSLKTEDTAVYYCHYVHYASASTVLPAFGVDAWGQGTTVTVSS VL: DIVMTQSPLSLPVTPGEPASISCQASQELVHMNRNTYLHWYQQKPGQAPRLLIYKVSNRFPGVPDRFSGSGSGTDFTLKISRVEAEDVGVYYCAQGTSVPFTFGQGTKLEIK |
| 0 | H183/L072 VH W33E (antibody, name in Kabat numbering, V domains shown) VH: QVQLVESGGGLVQPGRSLRLSCAASGFTFSNAEMHWVRQAPGKGLEWVAQIKDKGNAYAAYYAPSVKGRFTISRDDSKNSIYLQMNSLKTEDTAVYYCHYVHYASASTVLPAFGVDAWGQGTTVTVSS VL: DIVMTQSPLSLPVTPGEPASISCQASQELVHMNRNTYLHWYQQKPGQAPRLLIYKVSNRFPGVPDRFSGSGSGTDFTLKISRVEAEDVGVYYCAQGTSVPFTFGQGTKLEIK |
| 0 | H183/L072 VH N31E (antibody, name in Kabat numbering, V domains shown) VH: QVQLVESGGGLVQPGRSLRLSCAASGFTFSEAWMHWVRQAPGKGLEWVAQIKDKGNAYAAYYAPSVKGRFTISRDDSKNSIYLQMNSLKTEDTAVYYCHYVHYASASTVLPAFGVDAWGQGTTVTVSS VL: DIVMTQSPLSLPVTPGEPASISCQASQELVHMNRNTYLHWYQQKPGQAPRLLIYKVSNRFPGVPDRFSGSGSGTDFTLKISRVEAEDVGVYYCAQGTSVPFTFGQGTKLEIK |

Source: patent publication US20210388087A1
